B1: Abscisic acid receptor PYL3 (Arabidopsis thaliana (Mouse-ear cress)), Q9SSM7 (parent)
chain: MNLAPIHDPSSSSTTTTSSSTPYGLTKDEFSTLDSIIRTHHTFPRSPNTCTSLIAHRVDAPAHAIWRFVRDFANPNKYKHFIKSCTIRVNGNGIKEIKVGTIREVSVVSGLPASTSVEILEVLDEEKRILSFRVLGGEHRLNNYRSVTSVNEFVVLEKDKKKRVYSVVLESYIVDIPQGNTEEDTRMFVDTVVKSNLQNLAVISTASPT

Variants of: B1
Details: with HAB1, Q9CAJ0

How did the “effect of a mutation on the interaction” value turn out when MNLAPIHDPSSSSTTTTSSSTPYGLTKDEFSTLDSIIRTHHTFPRSPNTCTSLIAHRVDAPAHAIWRFVRDFANPNKYKHFIKSCTIRVNGNGIKEIKVGTIREVSVVSGLPASTSVEILEVLDEEKRILSFRVLGGEHRLNNYRSVTSVNEFVVLEKDKKKRVYSVVLESYIVDIPQGNTEEDTRMFVDTVVKLNLQNLAVISTASPT [S195L] was run?
Its value is “increasing interaction strength”.

For MNLAPIHDPSSSSTTTTSSSTPYGLTKDEFSTLDSIIRTHHTFPRSPNTCTSLIAHRVDAPAHAIWRFVRDFANPNKYKHAIKSCTIRVNGNGIKEIKVGTIREVSVVSGLPASTSVEILEVLDEEKRILSFRVLGGEHRLNNYRSVTSVNEFVVLEKDKKKRVYSVVLESYIVDIPQGNTEEDTRMFVDTVVKSNLQNLAAASTASPT [F81A;V202A;I203A], which “effect of a mutation on the interaction” value is on record?
Its value is “increasing interaction strength”.

From IntAct's records for PubMed 22579247
